Data reported in the supplement of paper PMC9732359.
± gives the uncertainty stated by the source.

Test: protein stability index of a GFP-peptide fusion (yeast GPS) (PSI 1-4); higher = more stable; sorted into four equal gates, so the index is relative within each strain
Outline: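 Tiled 17-residue peptides from yeast proteins were fused downstream of GFP on a plasmid that also expresses Cherry, and the pooled library was carried in yeast. Mid-log cultures grown in leucine-free medium were sorted into four equal gates by GFP/Cherry fluorescence ratio. Plasmids from each gate were PCR-amplified and Illumina-sequenced, and reads were assigned to strains by barcodes. Each peptide's protein stability index is the sum, over gates, of the gate's read frequency multiplied by its gate number.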

| Sequence | protein stability index (doa10∆) | protein stability index (pdr5∆) | protein stability index (san1∆) | protein stability index (ubr1∆) |
| --- | --- | --- | --- | --- |
| GEITKTENEKFISYHDK [NUT1] | 3.31 ± 0.097 | 3.35 ± 0.077 | 3.39 ± 0.057 | 3.17 ± 0.079 |
| KIPDTYTANTSAQSIAS [YAR002W/NUP60] | 1.99 ± 0.049 | 2.13 ± 0.056 | 2.07 ± 0.059 | 2.56 ± 0.034 |
| QDRHVIFLAERRILPKP [RPS7A] | 2.53 ± 0.23 | 2.93 ± 0.12 | 2.86 ± 0.27 | 2.73 ± 0.088 |
| LRACAANVDQISFLEPI [YMR129W/POM152] | 3.06 ± 0.072 | 2.98 ± 0.07 | 2.92 ± 0.05 | 2.97 ± 0.046 |
| KYKLISRIVEIFALCIY [YML103C/NUP188] | 1.58 ± 0.059 | 2.19 ± 0.055 | 1.86 ± 0.076 | 1.85 ± 0.059 |
| CKVVAEMIRGRSPEEIR [SKP1] |  | 1.95 ± 0.15 | 2.21 ± 0.29 | 1.49 ± 0.11 |
| ARYYRTVAVLPPNWKYE [RPS13] | 1.89 ± 0.044 | 2.1 ± 0.039 | 2.18 ± 0.051 | 1.92 ± 0.029 |
| TRMQRGHRADVGGQFSK [REC8] | 2.98 ± 0.13 | 3.32 ± 0.13 | 3.27 ± 0.074 | 3.39 ± 0.12 |
| MFNDLNSMDISMFSGLD [MED2] | 3.18 ± 0.06 | 3.26 ± 0.054 | 3.15 ± 0.037 | 3.12 ± 0.052 |
| SKMSDESFAELMTKLNS [RPC17] | 3.29 ± 0.12 | 3.67 ± 0.12 | 3.09 ± 0.098 | 3.37 ± 0.12 |
| AQQVPPYGVYHPPFIKY [SIN4] | 2.99 ± 0.12 | 1.61 ± 0.094 | 2.33 ± 0.074 | 2.18 ± 0.069 |
| MSSVQSKILSQAPSELE [RPS7B] | 2.58 ± 0.08 | 2.72 ± 0.083 | 2.61 ± 0.098 | 2.04 ± 0.1 |
| ERGLKVKEYQLRDRNFS [RPL11A] |  | 2.63 ± 0.2 |  |  |
| LSQVYPTLVRSVISGNL [CSN12] | 2.54 ± 0.072 | 2.92 ± 0.08 | 2.83 ± 0.1 | 2.48 ± 0.078 |
| KNAQYHLLVKQGDGLLT [RPN7] | 1.96 ± 0.1 | 1.61 ± 0.079 | 1.12 ± 0.18 | 1.22 ± 0.08 |
| PGDGSSYINVTFRAVVF [RPC25] | 1.5 ± 0.083 | 2.05 ± 0.058 | 2.4 ± 0.077 | 2.08 ± 0.054 |
| ITSDALEGITTTIDSLN [SMC3] | 2.45 ± 0.062 | 2.93 ± 0.084 | 2.9 ± 0.08 | 2.99 ± 0.07 |
| IDVNLNFARQLLFNNDF [RRP40] | 2.93 ± 0.064 | 1.56 ± 0.057 | 1.36 ± 0.13 | 1.82 ± 0.05 |
| GNVLLNATVVDSFKYEP [YLR335W/NUP2] | 2.92 ± 0.074 | 3.02 ± 0.1 | 3.05 ± 0.081 | 2.62 ± 0.17 |
| TYEAIDVPGRELKYELI [RPB2] | 3.01 ± 0.15 | 3.13 ± 0.098 | 3.1 ± 0.18 | 3.81 ± 0.16 |
| YKRQKSSLLYTYDENDD [ESC2] | 1.25 ± 0.059 | 1.42 ± 0.07 | 1.17 ± 0.11 | 1.21 ± 0.06 |
| DLKPANIMVTIDGCVKI [SSN3] | 2.58 ± 0.29 | 1.83 ± 0.16 |  | 1.69 ± 0.25 |
| YHRLSNKDMIKNLVKVL [CSN12] | 3.21 ± 0.26 | 2.97 ± 0.19 | 1.41 ± 0.25 |  |
| NLGRAVFWEIQSRVPTS [PRP8] | 2.05 ± 0.1 | 2.22 ± 0.17 | 2.17 ± 0.092 | 2.4 ± 0.18 |
| SQKQTLIKKPLTVFYAI [SSN3] | 2.1 ± 0.089 | 2.13 ± 0.061 | 2.12 ± 0.085 | 2.01 ± 0.057 |
| MTTFYKCVNCGHRWKEN [RPC11] | 2.82 ± 0.16 | 2.66 ± 0.071 | 2.22 ± 0.15 | 2.74 ± 0.071 |
| NELTDAIALAVRLGEED [RPN1] | 2.98 ± 0.096 | 3.27 ± 0.096 |  | 2.7 ± 0.095 |
